Data reported in patent US20150344570A1 (published 2015).

T1: FcγRIIb extracellular domain with C-terminal His tag (human, UniProt P31994 43-217)
T1 construct: extracellular domain; Soluble receptor used as analyte in Biacore; also called FcgRIIb
T1 sequence (looked up): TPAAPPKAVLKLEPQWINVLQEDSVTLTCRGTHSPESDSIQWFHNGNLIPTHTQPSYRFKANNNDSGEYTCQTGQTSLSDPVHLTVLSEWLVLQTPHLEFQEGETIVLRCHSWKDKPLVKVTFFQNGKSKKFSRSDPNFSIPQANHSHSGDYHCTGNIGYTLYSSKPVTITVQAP

T2: FcγRIIa H (FcγRIIa type H, His at position 131), extracellular domain with C-terminal His tag (human, UniProt P12318 34-217)
T2 construct: extracellular domain; expressed in FreeStyle293 cells; also called FcgRIIa H; 2aH; not shown: His tag attached to the C terminus
T2 sequence (looked up): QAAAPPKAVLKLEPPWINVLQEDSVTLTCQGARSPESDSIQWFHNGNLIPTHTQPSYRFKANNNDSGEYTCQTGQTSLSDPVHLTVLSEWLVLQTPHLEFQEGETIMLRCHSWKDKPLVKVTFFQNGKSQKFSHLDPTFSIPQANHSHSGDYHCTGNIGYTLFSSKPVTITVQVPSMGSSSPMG

T3: FcγRIIb, extracellular domain with C-terminal His tag (human, UniProt P31994 43-217)
T3 construct: extracellular domain; expressed in FreeStyle293 cells; also called FcgRIIb; 2b; not shown: His tag attached to the C terminus
T3 sequence (looked up): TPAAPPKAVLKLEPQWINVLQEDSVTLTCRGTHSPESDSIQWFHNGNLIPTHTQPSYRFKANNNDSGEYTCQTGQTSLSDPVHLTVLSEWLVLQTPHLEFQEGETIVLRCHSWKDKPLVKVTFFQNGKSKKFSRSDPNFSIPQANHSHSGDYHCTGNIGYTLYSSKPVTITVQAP


What was measured:
[1] = biological target: T1, FcγRIIb extracellular domain with …; assay: SPR (Biacore), antibody captured, FcγR as analyte; binding relative to GpH7-A5/GpH7-B3/GpL16-k0 = 100
[2] = biological target: T4, FcγRIa extracellular domain with C-terminal His tag (human, UniProt P12314 16-292); assay: as above
T4 construct: extracellular domain; Soluble receptor used as analyte in Biacore; also called FcgRI
T4 sequence (P12314 16-292): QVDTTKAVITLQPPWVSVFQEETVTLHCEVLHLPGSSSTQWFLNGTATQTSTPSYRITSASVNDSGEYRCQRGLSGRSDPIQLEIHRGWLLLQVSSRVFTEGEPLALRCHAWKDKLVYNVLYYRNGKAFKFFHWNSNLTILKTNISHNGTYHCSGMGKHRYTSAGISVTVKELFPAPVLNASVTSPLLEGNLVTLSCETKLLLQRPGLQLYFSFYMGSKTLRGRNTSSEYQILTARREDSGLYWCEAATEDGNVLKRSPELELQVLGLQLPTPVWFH

[3] = biological target: T2, FcγRIIa H (FcγRIIa type H, His at …); assay: SPR (Biacore); He/Con_2aH divided by He/Con_2b (FcγRIIa H against FcγRIIb)
[4] = biological target: T3, FcγRIIb, extracellular domain with …; assay: SPR (Biacore), antibody captured on antigen peptide chip, FcγR as analyte; relative to GpH7-A5/GpH7-B3/GpL16-k0 = 100
[5] = biological target: T2, FcγRIIa H (FcγRIIa type H, His at …); assay: as above

Binder | He/Con_2b [1] [control = 100] | He/Con_1a [2] [control = 100] | He_2aH/2b (IIaH/IIb) [3] [ratio] | He/Con_2b (relative binding activity) [4] | He/Con_2aH (relative binding activity) [5]
GpH7-A5/GpH7-B3 variant P331_20W/GpL16-k0 (antibody, human IgG1, kappa, Heterodimerized IgG1, mutation in the GpH7-B3 chain only; also called He Ab) heavy 1: not shown heavy 2: not shown light: DIVMTQSPLSLPVTPGEPASISCQASESLVHSNRNTYLHWYLQKPGQSPQLLIYKVSNRFSGVPDRFSGSGSGTDFTLKISRVEAEDVGVYYCSQNTHVPPTFGQGTKVEIERTVAAPSVFIFPPSDEQLKSGTASVVCLLNNFYPREAKVQWKVDNALQSGNSQESVTEQDSKDSTYSLSSTLTLSKADYEKHKVYACEVTHQGLSSPVTKSFNRGEC | 111 | 94.5 | – | – | –
GpH7-A5/GpH7-B3 variant P238_07I/GpL16-k0 (antibody, human IgG1, kappa, Heterodimerized antibody (He Ab): mutation in the GpH7-B3 chain only; also called He Ab) heavy 1: not shown heavy 2: not shown light: DIVMTQSPLSLPVTPGEPASISCQASESLVHSNRNTYLHWYLQKPGQSPQLLIYKVSNRFSGVPDRFSGSGSGTDFTLKISRVEAEDVGVYYCSQNTHVPPTFGQGTKVEIERTVAAPSVFIFPPSDEQLKSGTASVVCLLNNFYPREAKVQWKVDNALQSGNSQESVTEQDSKDSTYSLSSTLTLSKADYEKHKVYACEVTHQGLSSPVTKSFNRGEC | – | – | 0.72 | 80 % of HeCon Ab (= 100) | 57.6 % of HeCon Ab (= 100)
GpH7-A5/GpH7-B3 variant P238_10E/GpL16-k0 (antibody, human IgG1, kappa, Heterodimerized antibody (He Ab): mutation in the GpH7-B3 chain only; also called He Ab) heavy 1: not shown heavy 2: not shown light: DIVMTQSPLSLPVTPGEPASISCQASESLVHSNRNTYLHWYLQKPGQSPQLLIYKVSNRFSGVPDRFSGSGSGTDFTLKISRVEAEDVGVYYCSQNTHVPPTFGQGTKVEIERTVAAPSVFIFPPSDEQLKSGTASVVCLLNNFYPREAKVQWKVDNALQSGNSQESVTEQDSKDSTYSLSSTLTLSKADYEKHKVYACEVTHQGLSSPVTKSFNRGEC | – | – | 0.33 | 232 % of HeCon Ab (= 100) | 77.1 % of HeCon Ab (= 100)
GpH7-A5/GpH7-B3 variant P238_14T/GpL16-k0 (antibody, human IgG1, kappa, Heterodimerized antibody (He Ab): mutation in the GpH7-B3 chain only; also called He Ab) heavy 1: not shown heavy 2: not shown light: DIVMTQSPLSLPVTPGEPASISCQASESLVHSNRNTYLHWYLQKPGQSPQLLIYKVSNRFSGVPDRFSGSGSGTDFTLKISRVEAEDVGVYYCSQNTHVPPTFGQGTKVEIERTVAAPSVFIFPPSDEQLKSGTASVVCLLNNFYPREAKVQWKVDNALQSGNSQESVTEQDSKDSTYSLSSTLTLSKADYEKHKVYACEVTHQGLSSPVTKSFNRGEC | – | – | 0.74 | 50.7 % of HeCon Ab (= 100) | 37.7 % of HeCon Ab (= 100)
GpH7-A5/GpH7-B3 variant P238_18N/GpL16-k0 (antibody, human IgG1, kappa, Heterodimerized antibody (He Ab): mutation in the GpH7-B3 chain only; also called He Ab) heavy 1: not shown heavy 2: not shown light: DIVMTQSPLSLPVTPGEPASISCQASESLVHSNRNTYLHWYLQKPGQSPQLLIYKVSNRFSGVPDRFSGSGSGTDFTLKISRVEAEDVGVYYCSQNTHVPPTFGQGTKVEIERTVAAPSVFIFPPSDEQLKSGTASVVCLLNNFYPREAKVQWKVDNALQSGNSQESVTEQDSKDSTYSLSSTLTLSKADYEKHKVYACEVTHQGLSSPVTKSFNRGEC | – | – | 0.73 | 73.2 % of HeCon Ab (= 100) | 53.5 % of HeCon Ab (= 100)
GpH7-A5/GpH7-B3 variant P238_19Q/GpL16-k0 (antibody, human IgG1, kappa, Heterodimerized antibody (He Ab): mutation in the GpH7-B3 chain only; also called He Ab) heavy 1: not shown heavy 2: not shown light: DIVMTQSPLSLPVTPGEPASISCQASESLVHSNRNTYLHWYLQKPGQSPQLLIYKVSNRFSGVPDRFSGSGSGTDFTLKISRVEAEDVGVYYCSQNTHVPPTFGQGTKVEIERTVAAPSVFIFPPSDEQLKSGTASVVCLLNNFYPREAKVQWKVDNALQSGNSQESVTEQDSKDSTYSLSSTLTLSKADYEKHKVYACEVTHQGLSSPVTKSFNRGEC | – | – | 0.51 | 110 % of HeCon Ab (= 100) | 56.4 % of HeCon Ab (= 100)
GpH7-A5/GpH7-B3 variant P238_20W/GpL16-k0 (antibody, human IgG1, kappa, Heterodimerized antibody (He Ab): mutation in the GpH7-B3 chain only; also called He Ab) heavy 1: not shown heavy 2: not shown light: DIVMTQSPLSLPVTPGEPASISCQASESLVHSNRNTYLHWYLQKPGQSPQLLIYKVSNRFSGVPDRFSGSGSGTDFTLKISRVEAEDVGVYYCSQNTHVPPTFGQGTKVEIERTVAAPSVFIFPPSDEQLKSGTASVVCLLNNFYPREAKVQWKVDNALQSGNSQESVTEQDSKDSTYSLSSTLTLSKADYEKHKVYACEVTHQGLSSPVTKSFNRGEC | – | – | 0.49 | 123 % of HeCon Ab (= 100) | 59.5 % of HeCon Ab (= 100)

Now from value to binder:

He/Con_2b [1] [control = 100] | He/Con_1a [2] [control = 100] | He_2aH/2b (IIaH/IIb) [3] [ratio] | He/Con_2b (relative binding activity) [4] | He/Con_2aH (relative binding activity) [5] | Binder
– | – | 0.41 | 204 % of HeCon Ab (= 100) | 84.6 % of HeCon Ab (= 100) | GpH7-A5/GpH7-B3 variant P238_08L/GpL16-k0 (antibody, human IgG1, kappa, Heterodimerized antibody (He Ab): mutation in the GpH7-B3 chain only; also called He Ab) heavy 1: not shown heavy 2: not shown light: DIVMTQSPLSLPVTPGEPASISCQASESLVHSNRNTYLHWYLQKPGQSPQLLIYKVSNRFSGVPDRFSGSGSGTDFTLKISRVEAEDVGVYYCSQNTHVPPTFGQGTKVEIERTVAAPSVFIFPPSDEQLKSGTASVVCLLNNFYPREAKVQWKVDNALQSGNSQESVTEQDSKDSTYSLSSTLTLSKADYEKHKVYACEVTHQGLSSPVTKSFNRGEC
– | – | 0.4 | 221 % of HeCon Ab (= 100) | 87.5 % of HeCon Ab (= 100) | GpH7-A5/GpH7-B3 variant P238_09D/GpL16-k0 (antibody, human IgG1, kappa, Heterodimerized antibody (He Ab): mutation in the GpH7-B3 chain only; also called He Ab) heavy 1: not shown heavy 2: not shown light: DIVMTQSPLSLPVTPGEPASISCQASESLVHSNRNTYLHWYLQKPGQSPQLLIYKVSNRFSGVPDRFSGSGSGTDFTLKISRVEAEDVGVYYCSQNTHVPPTFGQGTKVEIERTVAAPSVFIFPPSDEQLKSGTASVVCLLNNFYPREAKVQWKVDNALQSGNSQESVTEQDSKDSTYSLSSTLTLSKADYEKHKVYACEVTHQGLSSPVTKSFNRGEC
– | – | 0.72 | 70.4 % of HeCon Ab (= 100) | 50.9 % of HeCon Ab (= 100) | GpH7-A5/GpH7-B3 variant P238_13S/GpL16-k0 (antibody, human IgG1, kappa, Heterodimerized antibody (He Ab): mutation in the GpH7-B3 chain only; also called He Ab) heavy 1: not shown heavy 2: not shown light: DIVMTQSPLSLPVTPGEPASISCQASESLVHSNRNTYLHWYLQKPGQSPQLLIYKVSNRFSGVPDRFSGSGSGTDFTLKISRVEAEDVGVYYCSQNTHVPPTFGQGTKVEIERTVAAPSVFIFPPSDEQLKSGTASVVCLLNNFYPREAKVQWKVDNALQSGNSQESVTEQDSKDSTYSLSSTLTLSKADYEKHKVYACEVTHQGLSSPVTKSFNRGEC
– | – | 0.27 | 218 % of HeCon Ab (= 100) | 59.8 % of HeCon Ab (= 100) | GpH7-A5/GpH7-B3 variant P238_15Y/GpL16-k0 (antibody, human IgG1, kappa, Heterodimerized antibody (He Ab): mutation in the GpH7-B3 chain only; also called He Ab) heavy 1: not shown heavy 2: not shown light: DIVMTQSPLSLPVTPGEPASISCQASESLVHSNRNTYLHWYLQKPGQSPQLLIYKVSNRFSGVPDRFSGSGSGTDFTLKISRVEAEDVGVYYCSQNTHVPPTFGQGTKVEIERTVAAPSVFIFPPSDEQLKSGTASVVCLLNNFYPREAKVQWKVDNALQSGNSQESVTEQDSKDSTYSLSSTLTLSKADYEKHKVYACEVTHQGLSSPVTKSFNRGEC
– | – | 0.4 | 115 % of HeCon Ab (= 100) | 45.9 % of HeCon Ab (= 100) | GpH7-A5/GpH7-B3 variant P238_16H/GpL16-k0 (antibody, human IgG1, kappa, Heterodimerized antibody (He Ab): mutation in the GpH7-B3 chain only; also called He Ab) heavy 1: not shown heavy 2: not shown light: DIVMTQSPLSLPVTPGEPASISCQASESLVHSNRNTYLHWYLQKPGQSPQLLIYKVSNRFSGVPDRFSGSGSGTDFTLKISRVEAEDVGVYYCSQNTHVPPTFGQGTKVEIERTVAAPSVFIFPPSDEQLKSGTASVVCLLNNFYPREAKVQWKVDNALQSGNSQESVTEQDSKDSTYSLSSTLTLSKADYEKHKVYACEVTHQGLSSPVTKSFNRGEC
– | – | 0.67 | 144 % of HeCon Ab (= 100) | 97 % of HeCon Ab (= 100) | GpH7-A5/GpH7-B3 variant S239_01G/GpL16-k0 (antibody, human IgG1, kappa, Heterodimerized antibody (He Ab): mutation in the GpH7-B3 chain only; also called He Ab) heavy 1: not shown heavy 2: not shown light: DIVMTQSPLSLPVTPGEPASISCQASESLVHSNRNTYLHWYLQKPGQSPQLLIYKVSNRFSGVPDRFSGSGSGTDFTLKISRVEAEDVGVYYCSQNTHVPPTFGQGTKVEIERTVAAPSVFIFPPSDEQLKSGTASVVCLLNNFYPREAKVQWKVDNALQSGNSQESVTEQDSKDSTYSLSSTLTLSKADYEKHKVYACEVTHQGLSSPVTKSFNRGEC
– | – | 0.33 | 102 % of HeCon Ab (= 100) | 33.3 % of HeCon Ab (= 100) | GpH7-A5/GpH7-B3 variant S239_05P/GpL16-k0 (antibody, human IgG1, kappa, Heterodimerized antibody (He Ab): mutation in the GpH7-B3 chain only; also called He Ab) heavy 1: not shown heavy 2: not shown light: DIVMTQSPLSLPVTPGEPASISCQASESLVHSNRNTYLHWYLQKPGQSPQLLIYKVSNRFSGVPDRFSGSGSGTDFTLKISRVEAEDVGVYYCSQNTHVPPTFGQGTKVEIERTVAAPSVFIFPPSDEQLKSGTASVVCLLNNFYPREAKVQWKVDNALQSGNSQESVTEQDSKDSTYSLSSTLTLSKADYEKHKVYACEVTHQGLSSPVTKSFNRGEC
